B5: his6-Vam3 (full length), His6-tagged Qa SNARE (natural protein, S. cerevisiae, UniProt Q12241 1-283, looked up)
chain: MSFFDIEAQSSKGNSQQEPQFSTNQKTKELSNLIETFAEQSRVLEKECTKIGSKRDSKELRYKIETELIPNCTSVRDKIESNILIHQNGKLSADFKNLKTKYQSLQQSYNQRKSLFPLKTPISPGTSKERKDIHPRTEAVRQDPESSYISIKVNEQSPLLHNEGQHQLQLQEEQEQQQQGLSQEELDFQTIIHQERSQQIGRIHTAVQEVNAIFHQLGSLVKEQGEQVTTIDENISHLHDNMQNANKQLTRADQHQRDRNKCGKVTLIIIIVVCMVVLLAVLS
notes: Vam3, vacuolar Qa-SNARE, S. cerevisiae, full length; A 36 amino acyl linker stands between the his6 tag and the N-terminus (Izawa et al., 2012, PMID 22174414); also called His6-Qa; source: E. coli, purified; not shown: His6 (with a 36 amino acyl linker), N-terminal, kept

Holding throughout (conditions): both partners purified
Assay [1] deals with T1, Qa-SNARE Vam3, full-length, wild-type (S. cerevisiae, UniProt Q12241 1-283).
T1 construct: Vam3, vacuolar Qa-SNARE, S. cerevisiae, full length; Isolated as GST-Qa (Mima et al., 2008); also called GST-Qa; source: E. coli, purified; reconstituted into proteoliposomes
T1 sequence (looked up): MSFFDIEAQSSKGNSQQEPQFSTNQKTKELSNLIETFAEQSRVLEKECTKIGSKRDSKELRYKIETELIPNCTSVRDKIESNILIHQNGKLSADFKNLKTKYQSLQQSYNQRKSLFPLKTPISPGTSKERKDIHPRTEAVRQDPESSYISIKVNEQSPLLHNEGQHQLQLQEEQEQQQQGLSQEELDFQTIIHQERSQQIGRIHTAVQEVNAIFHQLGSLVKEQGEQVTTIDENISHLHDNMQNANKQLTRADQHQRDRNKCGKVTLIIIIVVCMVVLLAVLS
Kind of assay: pull-down; his6-tagged Qa or his6-tagged Qb at 4 µM mixed with 4 µM of the other indicated full-length SNAREs in 20 mM HEPES-NaOH pH 7.4, 150 mM NaCl, 10% glycerol, 100 mM ß-octylglucoside, 20 mM imidazole; 1 hr 4°C; nickel-NTA agarose; Coomassie-stained gel.

The target in assay [2] is B5. Described as above.
The target of assay [3] is T1, Qa-SNARE Vam3, full-length, wild-type. In words: pull-down; GST-tagged R at 4 µM mixed with 4 µM of the other indicated full-length SNAREs in 20 mM HEPES-NaOH pH 7.4, 150 mM NaCl, 10% glycerol, 100 mM ß-octylglucoside; 1 hr 4°C; glutathione agarose 4B; Coomassie-stained gel.
Assay [4] shares this target. In words: co-IP; Ypt7/R and Ypt7/QaQb proteoliposomes incubated 33 min with or without 50 nM HOPS and 4 μM Qc; solubilised in modified RIPA buffer with 5 μM GST-R; precipitated with anti-Qa antibody on protein A magnetic beads, 4°C 2 hr; immunoblot for R. On the technique in general: Immunoblotting shows a protein as a band on a membrane.
In assay [5] the target is T2, Qc-SNARE Vam7, full-length, wild-type (inherently water-soluble) (S. cerevisiae, UniProt P32912 1-316).
T2 construct: Vam7, vacuolar Qc-SNARE, S. cerevisiae, full length; source: E. coli, purified
T2 sequence (looked up): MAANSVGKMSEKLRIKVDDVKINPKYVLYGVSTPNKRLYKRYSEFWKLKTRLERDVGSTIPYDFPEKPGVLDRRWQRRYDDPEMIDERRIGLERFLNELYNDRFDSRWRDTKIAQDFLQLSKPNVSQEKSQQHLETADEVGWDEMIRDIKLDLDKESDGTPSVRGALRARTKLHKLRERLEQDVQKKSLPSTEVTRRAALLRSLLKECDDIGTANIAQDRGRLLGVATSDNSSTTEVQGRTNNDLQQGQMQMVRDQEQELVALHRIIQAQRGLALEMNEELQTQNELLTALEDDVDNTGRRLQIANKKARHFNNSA
In words: pull-down; his6-tagged Qa or his6-tagged Qb at 4 µM mixed with 4 µM of the other indicated full-length SNAREs in 20 mM HEPES-NaOH pH 7.4, 150 mM NaCl, 10% glycerol, 100 mM ß-octylglucoside, 20 mM imidazole; 1 hr 4°C; nickel-NTA agarose; Coomassie-stained gel.

B1: his6-Vti1 (full length), his6-tagged Qb SNARE (natural protein, S. cerevisiae, UniProt Q04338 1-217, looked up)
chain: MSSLLISYESDFKTTLEQAKASLAEAPSQPLSQRNTTLKHVEQQQDELFDLLDQMDVEVNNSIGDASERATYKAKLREWKKTIQSDIKRPLQSLVDSGDRDRLFGDLNASNIDDDQRQQLLSNHAILQKSGDRLKDASRIANETEGIGSQIMMDLRSQRETLENARQTLFQADSYVDKSIKTLKTMTRRLVANKFISYAIIAVLILLILLVLFSKFK
notes: Vti1, vacuolar Qb-SNARE, S. cerevisiae, full length; A 36 amino acyl linker stands between the his6 tag and the N-terminus (Izawa et al., 2012, PMID 22174414); also called his6-Qb; source: E. coli, purified; not shown: His6 (with a 36 amino acyl linker), N-terminal, kept
Turning to B1, the binding result in assay [1] was “binds”.

B2: Qb-SNARE Vti1, full-length, wild-type (natural protein, S. cerevisiae, UniProt Q04338 1-217, looked up)
chain: MSSLLISYESDFKTTLEQAKASLAEAPSQPLSQRNTTLKHVEQQQDELFDLLDQMDVEVNNSIGDASERATYKAKLREWKKTIQSDIKRPLQSLVDSGDRDRLFGDLNASNIDDDQRQQLLSNHAILQKSGDRLKDASRIANETEGIGSQIMMDLRSQRETLENARQTLFQADSYVDKSIKTLKTMTRRLVANKFISYAIIAVLILLILLVLFSKFK
notes: Vti1, vacuolar Qb-SNARE, S. cerevisiae, full length; the text names it Qb without a tag; also called GST-Qb; source: E. coli, purified; buffer exchanged into β-octylglucoside; reconstituted into proteoliposomes
As to B2, the binding result in assay [2] is on record as “binds”.

B3: GST-Nyv1, GST-tagged full-length R SNARE (natural protein, S. cerevisiae, UniProt Q12255 1-253, looked up)
chain: MKRFNVSYVEVIKNGETISSCFQPFQKNENYGTITSANEQITPVIFHNLIMDMVLPKVVPIKGNKVTKMSMNLIDGFDCFYSTDDHDPKTVYVCFTLVDMPKILPIRILSGLQEYESNATNELLSSHVGQILDSFHEELVEYRNQTLNSSGNGQSSNGNGQNTISDIGDATEDQIKDVIQIMNDNIDKFLERQERVSLLVDKTSQLNSSSNKFRRKAVNIKEIMWWQKVKNITLLTFTIILFVSAAFMFFYLW
notes: Nyv1, vacuolar R-SNARE, S. cerevisiae, full length, cloned into pGST parallel1; Vector pGST parallel1 (Sheffield et al., 1999), BamHI/SalI; also called GST-R; GST-tagged R SNARE; source: E. coli Rosetta(DE3)pLysS, purified (glutathione-Sepharose 4B, in β-octylglucoside)
On to B3, for which, in assay [3], the binding result is recorded as “binds”.

B4: R-SNARE Nyv1, full-length, wild-type, untagged (natural protein, S. cerevisiae, UniProt Q12255 1-253, looked up)
chain: MKRFNVSYVEVIKNGETISSCFQPFQKNENYGTITSANEQITPVIFHNLIMDMVLPKVVPIKGNKVTKMSMNLIDGFDCFYSTDDHDPKTVYVCFTLVDMPKILPIRILSGLQEYESNATNELLSSHVGQILDSFHEELVEYRNQTLNSSGNGQSSNGNGQNTISDIGDATEDQIKDVIQIMNDNIDKFLERQERVSLLVDKTSQLNSSSNKFRRKAVNIKEIMWWQKVKNITLLTFTIILFVSAAFMFFYLW
notes: Nyv1, vacuolar R-SNARE, S. cerevisiae, full length; source: E. coli, purified; buffer exchanged into β-octylglucoside; reconstituted into proteoliposomes
B4: the binding result in assay [4] and in assay [2] was “binds” in each case.
B5: the binding result in assay [5] is on record as “binds”.

(Values after PMC6994237, “HOPS recognizes each SNARE, assembling ternary trans-complexes for rapid fusion upon engagement with the 4th SNARE” (eLife, 2020).)
